Assay results taken from patent US20080014599A1 (published 2008).

Experiments:
HA-tagged TSC2 (HA-TSC2) = target: T1, HA-tagged TSC2 (HA-TSC2) (human, UniProt P49815 1-1807); test: co-IP with anti-FLAG from transfected 293T post-nuclear supernatant (FIG. 25)
T1 construct: Expressed in transfected 293T cells; also called full length HA-tagged TSC2; not shown: HA tag
Protocol: TSC2 region that binds hRTP801 (FIG. 25). Human TSC2 HA-tagged “N” and “C” fragments (FIG. 25, upper panel) as well as full length HA-tagged TSC2 were transfected into 293T cells along with FLAG-hRTP801 or with empty vector. Forty-eight hours after transfection, the cells were treated with CoCl₂ for overnight. Cells were harvested and post-nuclear supernatant was prepared and used for IP with anti-FLAG antibodies. […] Similar results are achieved with RTP801L

[1] = target: T2, HA-tagged TSC2 “N” fragment (a.a. 2-935) (human, UniProt P49815 2-935); test: co-IP with anti-FLAG, anti-HA blot (FIG. 17)
T2 construct: Printed as a.a; also called HA-“N” fragment of TSC2; not shown: HA tag
T2 sequence (P49815 other isoform, or with tags, fused parts or gaps): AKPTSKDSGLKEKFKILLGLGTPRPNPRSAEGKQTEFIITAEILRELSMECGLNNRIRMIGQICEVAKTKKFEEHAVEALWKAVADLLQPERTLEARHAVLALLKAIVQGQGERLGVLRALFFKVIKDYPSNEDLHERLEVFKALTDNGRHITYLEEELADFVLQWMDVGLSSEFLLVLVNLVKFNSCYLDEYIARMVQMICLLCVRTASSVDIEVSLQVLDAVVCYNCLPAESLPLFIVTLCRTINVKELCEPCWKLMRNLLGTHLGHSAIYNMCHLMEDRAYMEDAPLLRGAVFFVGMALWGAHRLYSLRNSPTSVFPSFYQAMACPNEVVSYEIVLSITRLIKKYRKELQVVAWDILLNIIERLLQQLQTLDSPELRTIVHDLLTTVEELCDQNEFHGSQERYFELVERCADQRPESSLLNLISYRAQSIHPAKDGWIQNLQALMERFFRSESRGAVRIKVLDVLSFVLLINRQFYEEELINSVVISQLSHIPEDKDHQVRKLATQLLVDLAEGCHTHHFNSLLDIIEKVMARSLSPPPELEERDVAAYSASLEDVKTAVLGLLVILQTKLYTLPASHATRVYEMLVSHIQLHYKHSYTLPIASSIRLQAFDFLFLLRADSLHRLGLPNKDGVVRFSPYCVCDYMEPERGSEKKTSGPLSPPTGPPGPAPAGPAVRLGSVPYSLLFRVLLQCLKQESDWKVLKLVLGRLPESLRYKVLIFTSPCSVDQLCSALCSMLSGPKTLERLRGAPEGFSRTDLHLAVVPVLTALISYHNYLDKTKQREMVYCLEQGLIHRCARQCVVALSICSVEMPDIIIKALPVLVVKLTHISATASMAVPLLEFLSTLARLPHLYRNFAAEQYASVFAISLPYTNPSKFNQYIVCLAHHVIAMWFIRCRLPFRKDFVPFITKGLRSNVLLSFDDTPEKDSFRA
Protocol: Cytosolic extracts were prepared and IP was done using anti-FLAG antibodies. Analysis of the immnocomplexes was done with anti-HA.

TSC2 [2] = target: T3, TSC2 (human, UniProt P49815 1-1807, limits assumed); test: co-IP with anti-FLAG from 293T extracts (FIG. 34)
T3 construct: Untagged TSC2 in 293T cell extracts, endogenous or from a transfected TSC2 cDNA; Some extracts of the pull-downs may hold HA-TSC2; also called tuberin; endogenous TSC2
T3 sequence (P49815 other isoform, or with tags, fused parts or gaps limits assumed): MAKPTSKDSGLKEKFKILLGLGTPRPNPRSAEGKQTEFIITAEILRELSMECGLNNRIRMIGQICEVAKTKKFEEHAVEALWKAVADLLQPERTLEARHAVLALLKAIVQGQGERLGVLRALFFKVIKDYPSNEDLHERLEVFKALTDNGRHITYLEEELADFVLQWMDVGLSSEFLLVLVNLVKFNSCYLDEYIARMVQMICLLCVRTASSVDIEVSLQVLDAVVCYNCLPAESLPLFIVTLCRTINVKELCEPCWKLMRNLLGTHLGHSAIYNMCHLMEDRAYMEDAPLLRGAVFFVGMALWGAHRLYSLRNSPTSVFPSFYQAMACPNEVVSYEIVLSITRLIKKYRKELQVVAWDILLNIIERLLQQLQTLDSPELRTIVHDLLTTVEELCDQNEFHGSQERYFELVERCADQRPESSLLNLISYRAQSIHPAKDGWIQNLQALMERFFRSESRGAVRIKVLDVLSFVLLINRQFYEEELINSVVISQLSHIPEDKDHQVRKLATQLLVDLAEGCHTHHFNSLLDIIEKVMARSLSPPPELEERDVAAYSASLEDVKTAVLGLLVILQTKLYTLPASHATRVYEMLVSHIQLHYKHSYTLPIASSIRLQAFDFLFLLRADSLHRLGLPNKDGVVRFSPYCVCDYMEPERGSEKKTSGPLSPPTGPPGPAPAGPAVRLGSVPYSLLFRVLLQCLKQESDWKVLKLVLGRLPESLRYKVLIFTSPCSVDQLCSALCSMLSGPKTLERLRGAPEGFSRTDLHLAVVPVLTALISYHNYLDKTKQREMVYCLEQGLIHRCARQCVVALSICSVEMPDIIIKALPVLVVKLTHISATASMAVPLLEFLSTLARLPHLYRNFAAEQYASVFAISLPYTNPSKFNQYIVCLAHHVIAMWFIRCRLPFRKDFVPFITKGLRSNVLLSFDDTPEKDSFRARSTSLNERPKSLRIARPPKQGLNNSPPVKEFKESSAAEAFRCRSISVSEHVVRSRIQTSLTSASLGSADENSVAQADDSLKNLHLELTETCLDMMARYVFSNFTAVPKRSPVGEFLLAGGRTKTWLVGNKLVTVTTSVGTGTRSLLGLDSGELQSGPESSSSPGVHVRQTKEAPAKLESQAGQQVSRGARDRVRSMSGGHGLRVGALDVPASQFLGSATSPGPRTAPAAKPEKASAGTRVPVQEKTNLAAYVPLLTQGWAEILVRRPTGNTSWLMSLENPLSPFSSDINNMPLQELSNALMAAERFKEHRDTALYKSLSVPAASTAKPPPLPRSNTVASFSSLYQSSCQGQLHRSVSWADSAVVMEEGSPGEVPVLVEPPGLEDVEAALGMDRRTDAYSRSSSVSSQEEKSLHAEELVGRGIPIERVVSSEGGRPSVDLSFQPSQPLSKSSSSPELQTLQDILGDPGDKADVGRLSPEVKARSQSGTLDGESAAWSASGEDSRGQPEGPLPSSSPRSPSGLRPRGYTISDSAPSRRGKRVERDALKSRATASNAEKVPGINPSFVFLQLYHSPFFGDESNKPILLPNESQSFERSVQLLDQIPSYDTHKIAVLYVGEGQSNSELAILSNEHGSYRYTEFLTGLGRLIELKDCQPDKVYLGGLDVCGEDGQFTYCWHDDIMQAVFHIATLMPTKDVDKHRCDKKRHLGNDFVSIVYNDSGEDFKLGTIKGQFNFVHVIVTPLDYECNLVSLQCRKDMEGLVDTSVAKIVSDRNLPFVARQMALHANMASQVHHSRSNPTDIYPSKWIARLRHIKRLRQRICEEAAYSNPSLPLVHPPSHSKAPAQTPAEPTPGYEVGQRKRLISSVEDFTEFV
Protocol: Description: 293T cells were transiently transfected with either empty plasmid or with plasmid containing FLAG-hRTP801 or FLAG-hRTP801-L (REDD2) cDNAs. 48 hrs. post-transfection, cobalt chloride (150 uM) was added (or omitted) for another 24 hrs. Cytosolic extracts prepared and IP was done using anti-FLAG antibodies. Alternatively, 293T cells were transiently transfected with plasmid containing FLAG-hRTP801 cDNA and plasmid containing TSC1 or TSC2 cDNAs or both. 48 hrs. post transfection, cobalt chloride (150 uM) was added for another 24 hrs. Cytosolic extracts prepared and IP was done using anti-TSC1, anti-TSC2 or normal rabbit IgG (NRIgG) antibodies. Alternatively, 293T cells were transiently transfected with either empty plasmid,plasmid containing FLAG-hRTP801 cDNA and plasmids containing either TSC1 and/or TSC2 cDNAs. 48 hrs. post transfection, cobalt chloride (150 uM) was added for another 24 hrs. Cytosolic extracts prepared and IP was done using anti-FLAG antibodies.

[3] = target: T4, HA-SV5-full length hRTP801 (human, UniProt Q9NX09 1-232); test: co-IP with M2 anti-FLAG resin from 293T HEK extracts, immunoblot (FIG. 21)
T4 construct: Full length, expressed in transfected 293T HEK cells; also called HA-SV5-hRTP801; HA-full length hRTP801; not shown: HA and SV5 tags
T4 sequence: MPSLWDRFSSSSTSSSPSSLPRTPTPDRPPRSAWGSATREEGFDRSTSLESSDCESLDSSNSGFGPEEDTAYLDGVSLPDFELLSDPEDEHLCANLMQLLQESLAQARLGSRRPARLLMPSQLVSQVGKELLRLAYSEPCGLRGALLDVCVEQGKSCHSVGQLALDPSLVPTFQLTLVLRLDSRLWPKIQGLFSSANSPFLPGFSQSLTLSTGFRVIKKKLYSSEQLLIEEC
Protocol: 293T HEK cells were co-transfected with a plasmid containing cDNA of HA-SV5-full length hRTP801 (“Prey”) as well as plasmid containing cDNA of one of the following: FLAG-full length hRTP801, FLAG-(C) hRTP801, FLAG-(N-C1) hRTP801, FLAG-(N-C1) hRTP801, FLAG-(N-C2)hRTP801 and FLAG-(C3) hRTP801. Forty-eight hours after transfection, cells were treated with 150 uM cobalt chloride for 18 hrs to mimick hypoxic stress conditions. The next day, cytosolic extracts were made by mechanic lysis under hypotonic conditions. FLAG-tagged bait proteins were immunoprecipitated with M2 anti-FLAG resin (Sigma). Following extensive washing, immunoprecipitated material was analyzed by immunblotting with either anti-hRTP801 polyclonal antibodies (proprietary) or with anti-SV5 polyclonal antibodies (AbCam).

TSC2 [4] = target: T3, TSC2; test: in vitro pull-down from extract with 6× His baits (FIG. 13)

T1 sequence (P49815 other isoform, or with tags, fused parts or gaps limits assumed): as the sequence (P49815 other isoform, or with tags, fused parts or gaps limits assumed) above

B1: FLAG-hRTP801 (other)
chain: MPSLWDRFSSSSTSSSPSSLPRTPTPDRPPRSAWGSATREEGFDRSTSLESSDCESLDSSNSGFGPEEDTAYLDGVSLPDFELLSDPEDEHLCANLMQLLQESLAQARLGSRRPARLLMPSQLVSQVGKELLRLAYSEPCGLRGALLDVCVEQGKSCHSVGQLALDPSLVPTFQLTLVLRLDSRLWPKIQGLFSSANSPFLPGFSQSLTLSTGFRVIKKKLYSSEQLLIEEC
notes: Full length hRTP801 with FLAG tag, expressed in transfected 293T cells; also called FLAG-full length hRTP801; FLAG-tagged hRTP801; not shown: FLAG tag
B1: binds (HA-tagged TSC2 (HA-TSC2)); binds [1]; binds (TSC2 [2]).

B2: FLAG-hRTP801-L (REDD2) (other)
chain: MVATGSLSSKNPASISELLDCGYHPESLLSDFDYWDYVVPEPNLNEVIFEESTCQNLVKMLENCLSKSKQTKLGCSKVLVPEKLTQRIAQDVLRLSSTEPCGLRGCVMHVNLEIENVCKKLDRIVCDSSVVPTFELTLVFKQENCSWTSFRDFFFSRGRFSSGFRRTLILSSGFRLVKKKLYSLIGTTVIEGS
notes: Expressed in transfected 293T cells; also called FLAG-RTP801L; not shown: FLAG tag
B2: binds (TSC2 [2]).

B3: FLAG-(N-C2)hRTP801 (other)
chain: MPSLWDRFSSSSTSSSPSSLPRTPTPDRPPRSAWGSATREEGFDRSTSLESSDCESLDSSNSGFGPEEDTAYLDGVSLPDFELLSDPEDEHLCANLMQLLQESLAQARLGSRRPARLLMPSQLVSQVGKELLRLAYSEPCGLRGALLDVCVEQGKSCHSVGQLALDPSLVPTFQLTLVLRLDSRLWPKIQGLFSS
notes: also called hRTP801 N-C2 fragment; hRTP801 N-C2 mutant; not shown: FLAG tag
B3: binds [3].

B4: 6× His hRTP801 N-fragment (other)
chain: MPSLWDRFSSSSTSSSPSSLPRTPTPDRPPRSAWGSATREEGFDRSTSLESSDCESLDSSNSGFGPEEDTAYLDGVSLPDFELLSDPE
notes: not shown: 6× His tag
B4: no binding (TSC2 [4]).
